From publication PMC12903857

Experiments:
15-mer B-RAF peptide = assay: fluorescence polarisation; fluorescence anisotropy protein titration: 14-3-3σ titrated into 10 nM labeled peptide in the presence of a saturating concentration (100 μM) of a covalent compound, which is named in the quantity of each row; apparent
15-mer A-RAF peptide [1] = assay: fluorescence polarisation; fluorescence anisotropy protein titration: 14-3-3σ titrated into 10 nM labeled peptide in the presence of DMSO; apparent
15-mer A-RAF peptide [2] = assay: fluorescence polarisation; fluorescence anisotropy; Kd of the 15-mer peptides, told apart by the paper from the appKd in the presence of DMSO

- fold stabilization with 22 (against DMSO) (15-mer B-RAF peptide): 448 fold
- fold stabilization with 23 (against DMSO) (15-mer B-RAF peptide): 448 fold
- Kd (15-mer A-RAF peptide [1]): 3000 nM
- Kd (15-mer A-RAF peptide [2]): 8 µM
Substance: 14-3-3σ (from UniProt P31947 1-248) (natural protein)
